US20090068637A1

Tests used:
[1] = biological target: hemagglutinin of subtype H5 avian influenza virus (strain not stated) (avian influenza virus subtype H5)
[2] = biological target: HA of H5N1 virus strain A1 (avian influenza virus H5N1); experiment: cell-based or functional assay
[3] = biological target: HA of H5N1 virus strain A2 (avian influenza virus H5N1); experiment: cell-based or functional assay
[4] = biological target: HA of H5N1 virus strain A3 (avian influenza virus H5N1); experiment: cell-based or functional assay
[5] = biological target: HA of H5N1 virus strain A5 (avian influenza virus H5N1); experiment: cell-based or functional assay
[6] = biological target: HA of H5N1 virus strain A6 (avian influenza virus H5N1); experiment: cell-based or functional assay
[7] = biological target: HA of H5N1 virus strain A7 (avian influenza virus H5N1); experiment: cell-based or functional assay
[8] = biological target: HA of H5N1 virus strain A8 (avian influenza virus H5N1); experiment: cell-based or functional assay
[9] = biological target: HA of H5N1 virus strain B1 (avian influenza virus H5N1); experiment: cell-based or functional assay
[10] = biological target: HA of H5N1 virus strain B2 (avian influenza virus H5N1); experiment: cell-based or functional assay
[11] = biological target: HA of H5N1 virus strain B3 (avian influenza virus H5N1); experiment: cell-based or functional assay
[12] = biological target: HA of H5N1 virus strain B4 (avian influenza virus H5N1); experiment: cell-based or functional assay
[13] = biological target: HA of H5N1 virus strain B5 (avian influenza virus H5N1); experiment: cell-based or functional assay
[14] = biological target: HA of H5N1 virus strain B6 (avian influenza virus H5N1); experiment: cell-based or functional assay
[15] = biological target: HA of H5N1 virus strain B7 (avian influenza virus H5N1); experiment: cell-based or functional assay
[16] = biological target: HA of H5N1 virus strain B8 (avian influenza virus H5N1); experiment: cell-based or functional assay
[17] = biological target: HA of H5N1 virus strain C2 (avian influenza virus H5N1); experiment: cell-based or functional assay
[18] = biological target: HA of H5N1 virus strain C3 (avian influenza virus H5N1); experiment: cell-based or functional assay
[19] = biological target: HA of H5N1 virus strain D1 (avian influenza virus H5N1); experiment: cell-based or functional assay
[20] = biological target: HA of H5N1 virus strain D2 (avian influenza virus H5N1); experiment: cell-based or functional assay
[21] = biological target: HA of H5N1 virus strain E1 (avian influenza virus H5N1); experiment: cell-based or functional assay
[22] = biological target: HA of H5N1 virus strain E2 (avian influenza virus H5N1); experiment: cell-based or functional assay
[23] = biological target: HA of H5N1 virus strain F2 (avian influenza virus H5N1); experiment: cell-based or functional assay
[24] = biological target: HA of H5N1 virus strain F3 (avian influenza virus H5N1); experiment: cell-based or functional assay
[25] = biological target: HA of H5N1 virus strain G1 (avian influenza virus H5N1); experiment: cell-based or functional assay
[26] = biological target: HA of H5N1 virus strain H1 (avian influenza virus H5N1); experiment: cell-based or functional assay
[27] = biological target: HA of H5N1 virus strain H2 (avian influenza virus H5N1); experiment: cell-based or functional assay
[28] = biological target: H5 virus strains (thirty-four strains of H5N1 viruses); experiment: cell-based or functional assay
[29] = biological target: 7aa peptide 8H5A (HGMLPVY); experiment: phage ELISA: mAb coated at 5 ug/ml, phage 1:1000, anti-M13/HRP
[30] = biological target: 7aa peptide 8H5E (NSGPWLT); experiment: as above
[31] = biological target: HA of H5N1 virus strain A4 (avian influenza virus H5N1); experiment: cell-based or functional assay
[32] = biological target: HA of H5N1 virus strain C1 (avian influenza virus H5N1); experiment: cell-based or functional assay
[33] = biological target: non-H5 viruses (14 strains; H1~H13, Chicken NDV); experiment: cell-based or functional assay
[34] = biological target: HA of virus strain BhGs/QH/15/05 (avian influenza virus); experiment: cell-based or functional assay
[35] = biological target: HA of virus strain CK/HK/213/03 (avian influenza virus); experiment: cell-based or functional assay
[36] = biological target: HA of virus strain CK/IDN/2A/04 (avian influenza virus); experiment: cell-based or functional assay
[37] = biological target: HA of virus strain CP Heron/HK/18/05 (avian influenza virus); experiment: cell-based or functional assay
[38] = biological target: HA of virus strain DK/IDN/MS/04 (avian influenza virus); experiment: cell-based or functional assay
[39] = biological target: HA of virus strain Oriental Magpie Robin/HK/366/2006 (avian influenza virus); experiment: cell-based or functional assay

B1: 8H5 single chain antibody (scFv)
scFv: QVQLQQSGAELMKPGASVKISCKATGYTFSNYWIEWIKQRPGHGLEWIGEILPGSDRTNYNGKFKGKATFTADTSSNTAHMQLSSLTSEDSAVYYCANRYDGYYFGLDYWGQGTSVAVSSAGGGGSEIVLTQSPAIMSASLGEKVTMSCRASSSVNFVYWYQQRSDASPKLLIYYSSNLAPGVPPRFSGSGSGNSYSLTISGLEGEDAATYYCQHFTSSPYTFGGGTNLEIKR
[1]
  average value of the testing wells (ELISA reading): 0.597
[2]
  HI titer (n) (n (dilution 2^n)): 3.5
[3]
  HI titer (n) (n (dilution 2^n)): 4.5
[4]
  HI titer (n) (n (dilution 2^n)): 3.5
[5]
  HI titer (n) (n (dilution 2^n)): 4
[6]
  HI titer (n) (n (dilution 2^n)): 3
[7]
  HI titer (n) (n (dilution 2^n)): 3
[8]
  HI titer (n) (n (dilution 2^n)): 2.5
[9]
  HI titer (n) (n (dilution 2^n)): 4
[10]
  HI titer (n) (n (dilution 2^n)): 0
[11]
  HI titer (n) (n (dilution 2^n)): 5
[12]
  HI titer (n) (n (dilution 2^n)): 5
[13]
  HI titer (n) (n (dilution 2^n)): 0
[14]
  HI titer (n) (n (dilution 2^n)): 3.5
[15]
  HI titer (n) (n (dilution 2^n)): 4
[16]
  HI titer (n) (n (dilution 2^n)): 3
[17]
  HI titer (n) (n (dilution 2^n)): 1
[18]
  HI titer (n) (n (dilution 2^n)): 0
[19]
  HI titer (n) (n (dilution 2^n)): 2.5
[20]
  HI titer (n) (n (dilution 2^n)): 2
[21]
  HI titer (n) (n (dilution 2^n)): 0
[22]
  HI titer (n) (n (dilution 2^n)): 0
[23]
  HI titer (n) (n (dilution 2^n)): 0
[24]
  HI titer (n) (n (dilution 2^n)): 0
[25]
  HI titer (n) (n (dilution 2^n)): 0
[26]
  HI titer (n) (n (dilution 2^n)): 0
[27]
  HI titer (n) (n (dilution 2^n)): 0

B2: monoclonal antibody 8H5 (antibody, V domains shown)
VH: QVQLQQSGAELMKPGASVKISCKATGYTFSNYWIEWIKQRPGHGLEWIGEILPGSDRTNYNGKFKGKATFTADTSSNTAHMQLSSLTSEDSAVYYCANRYDGYYFGLDYWGQGTSVAVSSA
VL: EIVLTQSPAIMSASLGEKVTMSCRASSSVNFVYWYQQRSDASPKLLIYYSSNLAPGVPPRFSGSGSGNSYSLTISGLEGEDAATYYCQHFTSSPYTFGGGTNLEIKR
[28]
  HI assay: positive number/total virus number (of 34 strains): 34
[29]
  ELISA reading: 0.559
[30]
  ELISA reading: 0.25

B3: 4D1 chimeric antibody (antibody, V domains shown)
VH: QVQLQQPGAELVKPGASVNLSCKASGYTFTSYWMHWVKQRPGQGLEWIGEIDPSDSFTTYNQNFKDRATLTVDKSSSTAYMQLRSLTSEDSAVYYCARGGPGDFRYAMDYWGQGTSVTVSS
VL: DILMTQSPSSMSVSLGDTVSITCHASQGISSNIGWLQQKPGKSFKGLIYHGTNLEDGVPSRFSGSGSGADYSLTISSLESEDFADYYCVQYVQFPYTFGGGTKLEIKR
[2]
  HI test result: 5 n
[3]
  HI test result: 5.5 n
[4]
  HI test result: 5.5 n
[31]
  HI test result: 6 n
[6]
  HI test result: 4.5 n
[7]
  HI test result: 4 n
[8]
  HI test result: 5.5 n
[9]
  HI test result: > 8 n
[12]
  HI test result: 5.5 n
[14]
  HI test result: 6.5 n
[15]
  HI test result: 7 n
[16]
  HI test result: 4 n
[32]
  HI test result: 7.5 n
[17]
  HI test result: 6 n
[18]
  HI test result: 4 n
[19]
  HI test result: 5 n
[21]
  HI test result: 5.5 n
[22]
  HI test result: 7.5 n
[23]
  HI test result: 1 n
[24]
  HI test result: 1 n
[25]
  HI test result: 1 n
[26]
  HI test result: 1 n
[27]
  HI test result: 1 n

B4: 10F7 chimeric antibody (antibody, V domains shown)
VH: QVQLQQPGAELVKPGASVKLSCKASGYTFTSYWMHWVKQRPGQGLEWIGEIDPSDSYTNYNQKFKGKATLTVDKSSSTAYMQLSSLTSEDSAVYYCARGGTGDFHYAMDYWGQGTSVTVSS
VL: DILMTQSPSSMSVSLGDTVSITCHASQGISSNIGWLQQKPGKSFKGLIYHGTNLEDGVPSRFSGSGSGADYSLTISSLESEDFADYYCVQYVQFPYTFGGGTKLEIKR
[2]
  HI test result: 6.5 n
[3]
  HI test result: 7 n
[4]
  HI test result: 6.5 n
[31]
  HI test result: 7 n
[6]
  HI test result: 5 n
[7]
  HI test result: 5.5 n
[8]
  HI test result: 5.5 n
[9]
  HI test result: > 8 n
[12]
  HI test result: 6 n
[14]
  HI test result: 6 n
[15]
  HI test result: 7 n
[16]
  HI test result: 4.5 n
[32]
  HI test result: > 8 n
[17]
  HI test result: 6 n
[18]
  HI test result: 2.5 n
[19]
  HI test result: 2.5 n
[21]
  HI test result: 6 n
[22]
  HI test result: > 8 n
[23]
  HI test result: 2.5 n
[24]
  HI test result: > 8 n
[25]
  HI test result: 6.5 n
[26]
  HI test result: 5.5 n
[27]
  HI test result: 8 n

B5: monoclonal antibody 2F2 (antibody, V domains shown)
VH: QVQLKESGPGLVAPSQRLSITCTVSGFSLTGYGVHWIRQSPGKGLEWLGMIWAEGRTDYNSVLKSRLSINKDNSRSQVFLEMNSLQTDDTARYYCAREVITTEAWYFDVWGQGTSVTES
VL: DIVMTQSPATLSVTPGDRVSLSCRASQSISDYLYWYQQKSHESPRLLIKYASQSISGIPSRFSGSGSGSDFTLTINSVEPEDVGMYYCQNGHTFPLTFGAGTKLEIKR
[33]
  HI assay: positive number/total virus number (of 14 strains): 0
[28]
  HI assay: positive number/total virus number (of 34 strains): 28

B6: 10F7 single chain antibody (scFv)
scFv: QVQLQQPGAELVKPGASVKLSCKASGYTFTSYWMHWVKQRPGQGLEWIGEIDPSDSYTNYNQKFKGKATLTVDKSSSTAYMQLSSLTSEDSAVYYCARGGTGDFHYAMDYWGQGTSVTVSSGGGGSDILMTQSPSSMSVSLGDTVSITCHASQGISSNIGWLQQKPGKSFKGLIYHGTNLEDGVPSRFSGSGSGADYSLTISSLESEDFADYYCVQYVQFPYTFGGGTKLEIKR
[2]
  HI titer (n) (n (dilution 2^n)): > 8
[3]
  HI titer (n) (n (dilution 2^n)): > 8
[4]
  HI titer (n) (n (dilution 2^n)): > 8
[5]
  HI titer (n) (n (dilution 2^n)): > 8
[6]
  HI titer (n) (n (dilution 2^n)): 7.5
[7]
  HI titer (n) (n (dilution 2^n)): 6.5
[8]
  HI titer (n) (n (dilution 2^n)): 6
[9]
  HI titer (n) (n (dilution 2^n)): 7
[10]
  HI titer (n) (n (dilution 2^n)): 0
[11]
  HI titer (n) (n (dilution 2^n)): > 8
[12]
  HI titer (n) (n (dilution 2^n)): > 8
[13]
  HI titer (n) (n (dilution 2^n)): 0
[14]
  HI titer (n) (n (dilution 2^n)): 7
[15]
  HI titer (n) (n (dilution 2^n)): 7
[16]
  HI titer (n) (n (dilution 2^n)): 7
[17]
  HI titer (n) (n (dilution 2^n)): 2
[18]
  HI titer (n) (n (dilution 2^n)): 1
[19]
  HI titer (n) (n (dilution 2^n)): 2.5
[20]
  HI titer (n) (n (dilution 2^n)): 2.5
[21]
  HI titer (n) (n (dilution 2^n)): 0
[22]
  HI titer (n) (n (dilution 2^n)): 0
[23]
  HI titer (n) (n (dilution 2^n)): 0
[24]
  HI titer (n) (n (dilution 2^n)): 0
[25]
  HI titer (n) (n (dilution 2^n)): 0
[26]
  HI titer (n) (n (dilution 2^n)): < 1
[27]
  HI titer (n) (n (dilution 2^n)): 0
[34]
  neutralization test: dilution of 10F7 scFv (fold dilution): 16
[35]
  neutralization test: dilution of 10F7 scFv (fold dilution): < 1
[36]
  neutralization test: dilution of 10F7 scFv (fold dilution): 32
[37]
  neutralization test: dilution of 10F7 scFv (fold dilution): 8
[38]
  neutralization test: dilution of 10F7 scFv (fold dilution): 16
[39]
  neutralization test: dilution of 10F7 scFv (fold dilution): < 1
